Assay results taken from PMC12340889.

Columns and labels:
[1] = system: DriD(G18K-A20K) (Caulobacter crescentus); assay: fluorescence polarization; settings: FP: 25 mM Tris-HCl pH 7.5, 150 mM NaCl, 2.5% glycerol, 100 uM ssDNA, temperature not stated; cryo-EM: 20 mM Tris-HCl pH 8, 5 mM MgCl2, 100 mM NaCl, 1 mM bME …
[2] = system: DriD WT (Caulobacter crescentus); assay: fluorescence polarization; settings: FP: 25 mM Tris-HCl pH 7.5, 150 mM NaCl, 2.5% glycerol, 100 uM ssDNA, temperature not stated; cryo-EM: 20 mM Tris-HCl pH 8, 5 mM MgCl2, 100 mM NaCl, 1 mM bME …
[3] = target: C. crescentus DriD (wild type) (C. crescentus); assay: fluorescence polarisation; DriD (WT or mutant) first bound to fluoresceinated target DNA with 100 μM ssDNA, then increasing αCTD titrated in; 25 mM Tris-HCl pH 7.5, 150 mM NaCl, 2.5 % glycerol; apparent Kd; three technical replicates

“ATACGACAGTAACTGTCGTAT (double strand) [F-DriD target DNA]” showed a Kd [1] of 9.2 nM and a Kd [2] of 7.1 nM.

Work on “C. crescentus α subunit CTD (α residues 161–248) (domain or fragment)” yielded a Kd [3] of 30 µM.
